Sequences and labels used below:
B1: Voltage-gated delayed rectifier potassium channel KCNH1 (Homo sapiens), O95259-2 (parent)
chain: MTMAGGRRGLVAPQNTFLENIVRRSNDTNFVLGNAQIVDWPIVYSNDGFCKLSGYHRAEVMQKSSTCSFMYGELTDKDTIEKVRQTFENYEMNSFEILMYKKNRTPVWFFVKIAPIRNEQDKVVLFLCTFSDITAFKQPIEDDSCKGWGKFARLTRALTSSRGVLQQLAPSVQKGENVHKHSRLAEVLQLGSDILPQYKQEAPKTPPHIILHYCVFKTTWDWIILILTFYTAILVPYNVSFKTRQNNVAWLVVDSIVDVIFLVDIVLNFHTTFVGPAGEVISDPKLIRMNYLKTWFVIDLLSCLPYDVINAFENVDEGISSLFSSLKVVRLLRLGRVARKLDHYIEYGAAVLVLLVCVFGLAAHWMACIWYSIGDYEIFDEDTKTIRNNSWLYQLAMDIGTPYQFNGSGSGKWEGGPSKNSVYISSLYFTMTSLTSVGFGNIAPSTDIEKIFAVAIMMIGSLLYATIFGNVTTIFQQMYANTNRYHEMLNSVRDFLKLYQVPKGLSERVMDYIVSTWSMSRGIDTEKVLQICPKDMRADICVHLNRKVFKEHPAFRLASDGCLRALAMEFQTVHCAPGDLIYHAGESVDSLCFVVSGSLEVIQDDEVVAILGKGDVFGDVFWKEATLAQSCANVRALTYCDLHVIKRDALQKVLEFYTAFSHSFSRNLILTYNLRKRIVFRKISDVKREEEERMKRKNEAPLILPPDHPVRRLFQRFRQQKEARLAAERGGRDLDDLDVEKGNVLTEHASANHSLVKASVVTVRESPATPVSFQAASTSGVPDHAKLQAPGSECLGPKGGGGDCAKRKSWARFKDACGKSEDWNKVSKAESMETLPERTKASGEATLKKTDSCDSGITKSDLRLDNVGEARSPQDRSPILAEVKHSFYPIPEQTLQATVLEVRHELKEDIKALNAKMTNIEKQLSEILRILTSRRSSQSPQELFEISRPQSPESERDIFGAS
partner: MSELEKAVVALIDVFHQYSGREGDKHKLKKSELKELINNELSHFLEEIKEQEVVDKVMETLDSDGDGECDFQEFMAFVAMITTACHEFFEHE

The first assay covers variants of B1. Conditions: with S100B.
On to F714S, for which the “effect of a mutation on the interaction” value is “disrupting interaction”. Still for that read-out and setting: the value for F717S was “disrupting interaction”.

Variants of B1 are the subject of a further assay. As to conditions: with S100B. The source holds these as a separate data set.
Consider R681N, for which the “effect of a mutation on the interaction” value is recorded as “disrupting interaction”. The same measure, in the same setting: the entry for R677N is “disrupting interaction”. Still for that read-out and setting: the entry for K682N is “disrupting interaction”; for R675N it is “disrupting interaction”.

The values above are taken from IntAct's records for PubMed 20708613.
